Data on two molecules can be found in paper doi:10.1101/2025.10.29.685329 (bioRxiv, 2025).

No end group written: not given here.

One assay concerns the target T1, His-PGK1 (UniProt P00558 1-417).
T1 sequence (looked up): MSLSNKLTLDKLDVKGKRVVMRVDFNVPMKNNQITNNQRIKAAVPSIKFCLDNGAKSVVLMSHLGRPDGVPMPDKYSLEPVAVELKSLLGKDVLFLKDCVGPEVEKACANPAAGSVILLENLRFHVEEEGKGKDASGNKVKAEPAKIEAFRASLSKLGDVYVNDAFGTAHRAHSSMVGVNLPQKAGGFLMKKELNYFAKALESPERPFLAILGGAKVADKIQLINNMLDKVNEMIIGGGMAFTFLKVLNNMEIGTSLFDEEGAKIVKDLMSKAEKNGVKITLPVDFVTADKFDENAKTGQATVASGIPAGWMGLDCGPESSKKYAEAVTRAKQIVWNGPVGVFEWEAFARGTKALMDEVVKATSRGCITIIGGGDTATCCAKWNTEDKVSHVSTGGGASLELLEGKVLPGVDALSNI
Briefly: pull-down.

Another assay addresses T2, GST-PGK1 (UniProt P00558 1-417).
T2 sequence (looked up): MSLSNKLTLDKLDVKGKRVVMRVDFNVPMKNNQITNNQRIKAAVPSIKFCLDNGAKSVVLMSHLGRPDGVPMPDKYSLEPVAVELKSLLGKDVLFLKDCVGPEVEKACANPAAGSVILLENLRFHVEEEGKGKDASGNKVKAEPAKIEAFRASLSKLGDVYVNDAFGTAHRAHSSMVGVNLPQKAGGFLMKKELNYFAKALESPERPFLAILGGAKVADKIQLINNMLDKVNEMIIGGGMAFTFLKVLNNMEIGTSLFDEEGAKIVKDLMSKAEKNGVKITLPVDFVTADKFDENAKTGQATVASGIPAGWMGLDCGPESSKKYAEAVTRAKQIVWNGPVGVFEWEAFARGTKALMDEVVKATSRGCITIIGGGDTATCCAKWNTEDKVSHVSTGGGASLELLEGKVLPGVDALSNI
The experiment in a line: co-sedimentation.

B1: GST-TfR1-61 (TfR cyto), wild type (domain or fragment, UniProt P02786 1-61, looked up)
chain: MMDQARSAFSNLFGGEPLSYTRFSLARQVDGDNSHVEMKLAVDEEENADNNTKANVTKPKR
For B1, the binding result in the assay with His-PGK1 is reported as “binds”.

Regarding HHHHHHSAFSNLFGGEPLSYTRFSL (not fully specified) [His-Tyr peptide (lipid-linked tyrosine-based motif)], the binding result in the assay with GST-PGK1 is “binds”.
